Data from US20220348651A1, “ENTPD2 ANTIBODIES, COMBINATION THERAPIES, AND METHODS OF USING THE ANTIBODIES AND COMBINATION THERAPIES” (Novartis AG, priority 2019, published 2022).
Where a chain is given by its changes, count along the chain named.

T1: mouse ENTPD2 (Mus musculus, UniProt O55026)
T1 construct: residues 29-462 of mouse or rat ENTPD2 (the extracellular domain); mouse IgK signal peptide (N); His6; made in house; host or cells: FreeStyle 293-F cells, transient transfection
T1 sequence (O55026 29-462): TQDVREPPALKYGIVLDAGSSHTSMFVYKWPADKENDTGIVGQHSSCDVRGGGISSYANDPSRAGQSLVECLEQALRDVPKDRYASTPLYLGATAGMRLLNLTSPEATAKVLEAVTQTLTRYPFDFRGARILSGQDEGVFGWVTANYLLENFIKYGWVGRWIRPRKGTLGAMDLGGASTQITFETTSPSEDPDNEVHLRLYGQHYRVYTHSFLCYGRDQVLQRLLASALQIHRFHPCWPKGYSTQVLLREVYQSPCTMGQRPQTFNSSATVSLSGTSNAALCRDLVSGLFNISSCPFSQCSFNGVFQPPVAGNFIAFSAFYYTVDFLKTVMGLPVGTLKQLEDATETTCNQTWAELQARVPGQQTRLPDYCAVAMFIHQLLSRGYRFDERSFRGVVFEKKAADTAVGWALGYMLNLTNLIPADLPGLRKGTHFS

T2: human ENTPD2 (Homo sapiens, UniProt Q9Y5L3)
T2 construct: residues 29-462 of human or cyno ENTPD2 were cloned into expression vector; GP67 signal peptide (N); made in house; host or cells: High Five (Trichoplusia ni) insect cells, baculovirus
T2 sequence (Q9Y5L3 29-462): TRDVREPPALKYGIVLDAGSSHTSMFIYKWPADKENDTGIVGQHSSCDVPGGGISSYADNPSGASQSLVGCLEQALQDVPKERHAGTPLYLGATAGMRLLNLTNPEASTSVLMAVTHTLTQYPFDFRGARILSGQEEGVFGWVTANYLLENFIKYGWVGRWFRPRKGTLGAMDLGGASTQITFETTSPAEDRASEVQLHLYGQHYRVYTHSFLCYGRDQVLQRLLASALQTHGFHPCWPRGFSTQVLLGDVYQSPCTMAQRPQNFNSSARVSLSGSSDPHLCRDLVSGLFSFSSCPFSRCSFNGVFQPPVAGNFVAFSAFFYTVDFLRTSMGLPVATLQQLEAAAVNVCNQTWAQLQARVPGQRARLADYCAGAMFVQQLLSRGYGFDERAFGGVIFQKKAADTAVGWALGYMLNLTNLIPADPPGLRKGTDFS

B1: mAb8: anti-human ENTPD2 antibody of Table 1; VH SEQ ID NO: 91, VL SEQ ID NO: 102 (antibody, V domains shown)
VH: QVQLQQSGPGLVKPSQTLSLTCAISGDSVSSSSAAWNWIRQSPSRGLEWLGRIYYRSKWYNDYAVSVKSRITINPDTSKNQFSLQLNSVTPEDTAVYYCARGSYVTSSYEGFDYWGQGTLVTVSS
VL: SYELTQPLSVSVALGQTARITCSGDNLPEKYAYWYQQKPGQAPVLVIYDDNKRPSGIPERFSGSNSGNTATLTISRAQAGDEADYYCQSYGKWGWTWVFGGGTKLTVL
B2: mAb9: anti-human ENTPD2 antibody of Table 1; VH SEQ ID NO: 115, VL SEQ ID NO: 125 (antibody, V domains shown)
VH: QVQLVQSGAEVKKPGSSVKVSCKASGGTFDSYAVSWVRQAPGQGLEWMGRIVPWLGHTQYAQKFQGRVTITADESTSTAYMELSSLRSEDTAVYYCARESPGYRYSFDVWDQGTLVTVSS
VL: SYELTQPLSVSVALGQTARITCSGDAIGEKYVYWYQQKPGQAPVLVIYDDNNRPSGIPERFSGSNSGNTATLTISRAQAGDEADYYCASYDLQQARWVFGGGTKLTVL
B3: mAb10: anti-human ENTPD2 antibody of Table 1; VH SEQ ID NO: 132, VL SEQ ID NO: 125 (antibody, V domains shown)
VH: B2 VH with H57F, Q59R
VL: B2 VL
B4: mAb3: humanized anti-human ENTPD2 antibody from mAb17; VH SEQ ID NO: 33, VL SEQ ID NO: 29 (antibody, V domains shown)
VH: QVQLVQSGAEVVKPGASVKISCKASGYTFTDYNMDWVKQAPGQRLEWIGDINPKYDISTYNQQFKGKATITVDTSASTAYMELSSLRSEDTAVYYCARRGFFLYYGINYYYFDVWGQGTLVTVSS
VL: EIVLTQSPATLSASPGERITLSCSASSSVSYIHWYQQKPGQAPRLLIYSTSNLASGIPARFSGSGSGTFYTLTISSVEPEDAAVYYCHQWSSYPWTFGGGTKLEIK
B5: mAb2: humanized anti-human ENTPD2 antibody from mAb17; VH SEQ ID NO: 25, VL SEQ ID NO: 29 (antibody, V domains shown)
VH: B4 VH with T74K
VL: B4 VL
B6: mAb4: humanized anti-human ENTPD2 antibody from mAb16; VH SEQ ID NO: 46, VL SEQ ID NO: 57 (antibody, V domains shown)
VH: QIQLQESGPGLVKPSQTLSLTCTVSGYSITSGYYWNWIRQHPGKGLEWIGYISYDADNNYNPSLKNRVTISRDTSKNQFSLKLSSVTAADTAVYYCAGGYYRYGLGSYRGSYYYVMDYWGQGTTVTVSS
VL: ETVLTQSPATLSVSPGERATISCKASQSVDYEGHSYMNWYQQKPGQAPRLLIYAASNLESGIPARFSGSGSGTDFTLTISSVEPEDAATYYCQQSNEDPPTFGGGTKLEIK
B7: mAb5: humanized anti-human ENTPD2 antibody from mAb16; VH SEQ ID NO: 46, VL SEQ ID NO: 64 (antibody, V domains shown)
VH: B6 VH
VL: B6 VL with E32D, H34N

biological target: T1, mouse ENTPD2; test: Antibody specificity: binding to mouse ENTPD2; details: not given
Description: Antibody specificity for mAbl-mAblO was confirmed. […] Antibodies mAb8, mAb9, and mAb10 show weak affinity to mouse ENTPD2. None of the selected antibodies bind to rat ENTPD2.

Molecule | affinity / cross-reactivity to mouse ENTPD2
B1 | weak affinity
B2 | weak affinity
B3 | weak affinity

same assay, conditions: Mouse ENTPD2

Molecule | BIACore KD
B1 | Weak binding
B4 | No binding
B5 | No binding
B6 | No binding
B7 | No binding
B3 | Weak binding

system: cynomologus (cyno) ENTPD2; test: Biacore (SPR) affinity to cyno ENTPD2 ECD; format: binding, cynomolgus monkey; details: 25° C.
Sequence (as listed by the source): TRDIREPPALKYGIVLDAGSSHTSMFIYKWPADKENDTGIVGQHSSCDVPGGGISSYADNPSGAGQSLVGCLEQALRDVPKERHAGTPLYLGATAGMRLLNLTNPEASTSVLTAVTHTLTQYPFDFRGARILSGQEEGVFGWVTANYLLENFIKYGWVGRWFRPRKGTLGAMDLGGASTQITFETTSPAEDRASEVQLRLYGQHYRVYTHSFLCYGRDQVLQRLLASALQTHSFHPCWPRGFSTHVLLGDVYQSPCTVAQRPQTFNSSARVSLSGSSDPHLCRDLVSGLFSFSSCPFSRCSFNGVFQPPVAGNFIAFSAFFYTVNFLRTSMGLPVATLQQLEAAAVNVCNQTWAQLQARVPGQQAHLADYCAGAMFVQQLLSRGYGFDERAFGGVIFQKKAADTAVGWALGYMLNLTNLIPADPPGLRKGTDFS
Procedure: (§1) Biacore Screening: Affinity was measured by determining the kinetic rate constants using surface plasmon resonance (SPR) on a Biacore T200 or T100 with the T200 sensitivity upgrade instrument (Biacore, GE Healthcare). Antibodies were captured on CM5 sensor chips (Biacore, GE Healthcare) prepared with a mouse anti-human IgG Fc antibody (ThermoFisher catalogue #05-4200) amine coupled to the surface. […] ENTPD2 analytes were allowed to associate for 180 s and dissociate for up to 1800 s depending on the off-rate of the antibody at a flow rate of 30 μL/min. The running buffer was PBS pH 7.2 (prepared from a Corning 10X stock, cat#46-013-CM)+0.05% Tween 20. Regeneration was accomplished with 30 s injections of 3 or 4 M MgCl2 to remove all the captured antibody and remaining complex from the surface, after which fresh antibody was captured. The raw data were analyzed using Biacore T200 Evaluation Software version 1.0 and fit to a 1:1 binding model, with all parameters set to fit globally except for RI, which was set to fit locally.

Molecule | ka [M⁻¹ s⁻¹] | kd [s⁻¹] | Kd [nM]
B1 | 300000 | 0.024 | 
B4 | 450000 | 0.00098 | 
B5 | 430000 | 0.0012 | 2.8
B6 | 140000 | 0.0057 | 
B7 | 290000 | 0.003 | 
B2 | 990000 | 0.021 | 
B3 | 1.2e+06 | 0.018 | 

biological target: T2, human ENTPD2; test: Biacore (SPR) affinity to human ENTPD2 ECD; format: binding; details: 25° C.
Procedure: as §1

Molecule | ka [M⁻¹ s⁻¹] | kd [s⁻¹] | Kd [nM]
B1 | 290000 | 0.00094 | 
B4 | 130000 | 0.00016 | 
B5 | 110000 | 0.00018 | 1.7
B6 | 300000 | 0.00022 | 
B7 | 270000 | 0.00016 | 
B2 | 380000 | 0.0003 | 
B3 | 340000 | 0.00024 | 
